“And” between values parts separate entries of the source, which are not always exact repeats. Equal entries are not always repeated.
How the values were obtained:
[1] = target: MalE-RomR (Myxococcus xanthus); experiment: mass photometry
[2] = target: MalE-MglC (Myxococcus xanthus); experiment: mass photometry
MglA-His6 = target: T1, MglA-His6 (Myxococcus xanthus, UniProt Q1DB04 1-195); experiment: pull-down
T1 sequence: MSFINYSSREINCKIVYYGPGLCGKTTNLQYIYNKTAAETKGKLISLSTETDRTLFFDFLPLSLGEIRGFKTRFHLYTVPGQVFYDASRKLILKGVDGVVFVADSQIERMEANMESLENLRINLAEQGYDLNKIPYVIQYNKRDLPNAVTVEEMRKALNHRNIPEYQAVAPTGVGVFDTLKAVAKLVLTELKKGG

Question: MalE-RomR (natural protein) was tested. Which stoichiometry N [1] did it give?
Answer: Its stoichiometry N is 3 and 2.

Question: What about the stoichiometry N (RomR:MglC (2:2)) [2] of the same molecule?
Answer: The stoichiometry N (RomR:MglC (2:2)) was 1.

Question: What about the stoichiometry N (RomR:MglC (3:2)) [2] of the same molecule?
Answer: The stoichiometry N (RomR:MglC (3:2)) was 1.5.

Question: For MalE-MglC (natural protein), which stoichiometry N [2] is on record?
Answer: Its stoichiometry N is 2.

B1: His6-MglB (natural protein, Myxococcus xanthus)
chain: MGTQLVMYEEEFTKINAVCDRLTKDANAKVVFLVDKNGQLISSAGQTQNIDTTSLASLTAGNVAAMGGLAKLIGENEFPNQFHEGAKDSLYMTIVGSRVVLVVIFDNRTSLGLVRLRIKKASDELTKIFESLVKKTDSPGAGSPFAEISDDDIDNLFSE
Question: Does B1 bind (MglA-His6)?
Answer: Result: binds

Reference: paper doi:10.1101/2022.12.09.519731 (bioRxiv, 2022)
